{"source": "patent US20110217237A1", "about": "(AbbVie / Abbott, published 2011)", "binders": {"B1": {"name": "14G1 rat anti-DLL4 monoclonal antibody (antibody, rat IgG2a, V domains shown)", "VH": "EVQLQQSGAELAKPGSSVKISCKASGYTFTNYDISWIKQTNGQGLEYLGYINTGSGGIYSNEKFKGKATLTVDKSSNTAFMQLSSLTPEDTAVYYCVREGNNFDHWGQGVKVTVSS", "VL": "DTVMTQSPASMSTSVGERVTVNCKASQSVGTIVAWFQQKPGQSPKRLIYLATYRHTGVPDRFIGSGFGRDFTLTISNVEAEDLAVYYCLQYGSRPFTFGAGTKLEIKR", "notes": "rat IgG2a/K hybridoma mAb; also called MC13-14G1.1B4"}, "B2": {"name": "15D6 rat anti-DLL4 monoclonal antibody (antibody, rat IgG2a, V domains shown)", "VH": "EVQLQQSGPELAKPGSSVKISCKASGYTFTSSYISWIKQTTGQGLEYIGYINTGSGGTDYNEKFKDKATLTVDKSSRTVFMQLSSLTPGDSAVYYCAKSILLGSTYYLDYWGQGVMVTVSS", "VL": "DTVLTQSPALAVSLGQRVTISCKASRSLSSPMYSYIYWYQQKLGQQPRLLIYRASTLASGVPARFSGSGSGTDFTLNIDPVEADDIATYFCQQSWSDPFTFGSGTKLEIKR", "notes": "rat IgG2a/K hybridoma mAb; also called MC13-15D6.1G7"}, "B3": {"name": "32C7 rat anti-DLL4 monoclonal antibody (antibody, rat IgG2a, V domains shown)", "VH": "EVQLVESGGGLVQPGRSLKLSCLASGFPFSSVWMTWIRQAPGKGLEWIATITNSGASTYYSASVKGRFTISRDNVKSTLYLQMTSLGSEDTATYYCTRVGTSFDYWGQGVMVTVSS", "VL": "DIQMTQSPASLSASLGETVTIECRASDDIYNGLAWFQQKPGKSPQLLIYDANTLHTGVPSRFSGSGSGTQFSLKINSLQSEDVASYFCQQFYDYPPYTFGAGTKLELKR", "notes": "rat IgG2a/k hybridoma mAb; also called MC10-32C7.5A4"}}, "key": {"[1]": {"target": "T1, human DLL4, full length, on cells (human, UniProt Q9NR61 27-685)", "T1 sequence (Q9NR61 27-685 limits assumed)": "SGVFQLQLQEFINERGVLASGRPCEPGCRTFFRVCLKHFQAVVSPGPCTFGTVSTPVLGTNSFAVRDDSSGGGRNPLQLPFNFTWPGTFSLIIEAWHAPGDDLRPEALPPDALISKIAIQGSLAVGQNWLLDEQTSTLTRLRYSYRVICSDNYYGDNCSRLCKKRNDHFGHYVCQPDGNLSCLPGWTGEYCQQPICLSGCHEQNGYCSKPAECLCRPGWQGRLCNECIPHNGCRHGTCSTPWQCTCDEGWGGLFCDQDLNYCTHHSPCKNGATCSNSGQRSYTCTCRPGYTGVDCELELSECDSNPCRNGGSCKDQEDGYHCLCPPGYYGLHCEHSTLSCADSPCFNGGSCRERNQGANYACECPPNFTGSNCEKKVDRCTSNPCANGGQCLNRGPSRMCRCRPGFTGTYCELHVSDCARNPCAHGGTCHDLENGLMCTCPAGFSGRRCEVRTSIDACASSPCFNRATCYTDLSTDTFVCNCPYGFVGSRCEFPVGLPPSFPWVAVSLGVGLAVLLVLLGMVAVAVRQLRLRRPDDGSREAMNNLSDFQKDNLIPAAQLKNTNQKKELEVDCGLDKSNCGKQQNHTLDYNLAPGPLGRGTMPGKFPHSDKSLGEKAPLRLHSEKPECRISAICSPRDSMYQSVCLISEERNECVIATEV", "assay": "cell-based or functional assay"}, "[2]": {"target": "T2, mouse DLL4 extracellular domain (mouse, UniProt Q9JI71 27-532)", "T2 construct": "extracellular domain; also called muDLL4 ECD; murine DLL4", "T2 sequence (Q9JI71 27-532)": "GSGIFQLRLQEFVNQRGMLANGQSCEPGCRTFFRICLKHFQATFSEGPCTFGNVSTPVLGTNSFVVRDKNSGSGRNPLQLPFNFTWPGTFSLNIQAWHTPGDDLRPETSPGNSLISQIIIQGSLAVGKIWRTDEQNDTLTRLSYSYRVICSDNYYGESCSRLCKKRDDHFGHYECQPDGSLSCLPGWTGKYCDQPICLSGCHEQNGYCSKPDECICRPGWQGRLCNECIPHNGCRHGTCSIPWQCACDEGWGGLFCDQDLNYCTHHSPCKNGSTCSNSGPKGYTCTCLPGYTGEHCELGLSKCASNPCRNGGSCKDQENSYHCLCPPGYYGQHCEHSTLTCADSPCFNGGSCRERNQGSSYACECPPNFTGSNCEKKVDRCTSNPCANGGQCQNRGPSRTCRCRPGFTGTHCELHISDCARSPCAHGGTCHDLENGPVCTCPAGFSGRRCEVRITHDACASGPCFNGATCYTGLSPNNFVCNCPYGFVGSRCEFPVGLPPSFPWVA", "assay": "SPR (Biacore)", "in_short": "(§1)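 Purified anti-DLL4 antibodies (1 μg/ml) captured on immobilized goat anti-human Fc, with DLL4 ECD injected as analyte; HBS-EPB running buffer (pH 7.4), 25° C, referenced against capture-only surface. On/off rates from global 1:1 Langmuir fit; KD = Koff/Kon.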"}, "[3]": {"target": "T3, rat DLL4 extracellular domain (rat, UniProt D3ZHH1 28-530)", "T3 construct": "extracellular domain; also called ratDLL4 ECD", "T3 sequence (D3ZHH1 28-530)": "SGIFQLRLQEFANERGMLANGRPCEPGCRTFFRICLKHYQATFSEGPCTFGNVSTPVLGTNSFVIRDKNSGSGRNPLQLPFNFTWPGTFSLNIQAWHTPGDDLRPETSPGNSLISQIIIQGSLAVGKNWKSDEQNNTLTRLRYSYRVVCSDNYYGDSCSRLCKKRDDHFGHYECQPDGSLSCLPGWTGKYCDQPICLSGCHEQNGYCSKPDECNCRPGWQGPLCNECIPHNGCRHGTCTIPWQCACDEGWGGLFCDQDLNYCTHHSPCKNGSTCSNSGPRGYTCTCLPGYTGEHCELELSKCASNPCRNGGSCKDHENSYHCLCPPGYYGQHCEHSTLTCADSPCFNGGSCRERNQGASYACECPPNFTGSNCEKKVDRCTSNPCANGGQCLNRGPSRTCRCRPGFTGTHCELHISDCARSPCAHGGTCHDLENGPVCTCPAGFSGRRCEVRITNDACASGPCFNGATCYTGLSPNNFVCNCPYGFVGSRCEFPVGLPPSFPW", "assay": "SPR (Biacore)", "in_short": "as §1"}, "[4]": {"target": "T4, cynomolgus monkey DLL4 extracellular domain (cynomolgus monkey)", "T4 construct": "extracellular domain; also called cynoDLL4 ECD; Cyno DLL4", "assay": "SPR (Biacore)", "protocol": "(§2) The BIACORE® surface plasmon resonance assay (Biacore, Inc., Piscataway, N.J., US) determines the affinity of antibodies with kinetic measurements of on-rate and off-rate constants. Binding of DLL4 antibodies to a purified recombinant DLL4 extracellular domain (ECD) was determined by surface plasmon resonance-based measurements with a Biacore® instrument (either a Biacore 2000, Biacore 3000, or Biacore T100; GE Healthcare, Piscataway, N.J., US) using running buffer HBS-EPB (10 mM HEPES [pH 7.4], 150 mM NaCl, 3 mM EDTA, 0.1 mg/ml BSA and 0.005% surfactant P20) at 25° C. For example, approximately 9000 RU of goat anti-human Fc specific polyclonal antibody (Thermo Fisher Scientific Inc., Rockford, Ill., US) diluted in 10 mM sodium acetate (pH 4.5) is directly immobilized across a CMS research grade biosensor chip using a standard amine coupling kit according to manufacturer's instructions and procedures at 25 μg/ml. Unreacted moieties on the biosensor surface were blocked with ethanolamine. For kinetic analysis, rate equations derived from the 1:1 Langmuir binding model were fitted simultaneously to multiple antigen injections (using global fit analysis) with the use of Scrubber 2 (BioLogic Software), Biacore Biaevaluation 4.0.1 software or Biacore T100 Evaluation software. Purified antibodies were diluted in running buffer for capture across goat anti-human Fc reaction surfaces. Antibodies to be captured as a ligand (1 μg/ml) were injected over reaction matrices at a flow rate of 10 μl/min. During the assay, all measurements were referenced against the capture surface alone (i.e., with no captured anti-DLL4 antibody). […] The equilibrium dissociation constant KD (M) of the reaction between antibodies and the target antigen was then calculated from the kinetic rate constants by the following formula: KD=Koff/Kₒₙ. Binding was recorded as a function of time and kinetic rate constants were calculated."}, "[5]": {"target": "T5, human DLL4 extracellular domain (human, UniProt Q9NR61 27-529)", "T5 construct": "purified recombinant ECD; biotin-labelled or 6xHis-tagged depending on the assay; also called huDLL4 ECD; hu DLL4 ECD", "T5 sequence (Q9NR61 27-529 limits assumed)": "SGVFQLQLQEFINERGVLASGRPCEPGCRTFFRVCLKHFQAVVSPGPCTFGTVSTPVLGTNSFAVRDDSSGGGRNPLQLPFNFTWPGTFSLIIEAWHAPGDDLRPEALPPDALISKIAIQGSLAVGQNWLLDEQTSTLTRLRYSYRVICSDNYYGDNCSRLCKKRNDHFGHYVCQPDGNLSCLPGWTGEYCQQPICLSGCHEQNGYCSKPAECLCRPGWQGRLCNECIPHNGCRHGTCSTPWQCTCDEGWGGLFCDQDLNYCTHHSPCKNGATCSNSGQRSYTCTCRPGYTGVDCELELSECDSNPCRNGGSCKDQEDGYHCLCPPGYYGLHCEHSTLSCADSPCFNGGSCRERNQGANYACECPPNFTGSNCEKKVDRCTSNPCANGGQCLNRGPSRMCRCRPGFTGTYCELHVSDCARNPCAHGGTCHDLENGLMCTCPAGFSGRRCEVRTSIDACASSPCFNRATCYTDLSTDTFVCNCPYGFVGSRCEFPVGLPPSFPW", "assay": "SPR (Biacore)", "protocol": "as §2"}, "[6]": {"target": "T6, mouse DLL4 on cells (mouse, UniProt Q9JI71 27-686)", "T6 construct": "whole, on cells; also called mouse DLL4-293G; mu DLL4 cells", "T6 sequence (Q9JI71 27-686)": "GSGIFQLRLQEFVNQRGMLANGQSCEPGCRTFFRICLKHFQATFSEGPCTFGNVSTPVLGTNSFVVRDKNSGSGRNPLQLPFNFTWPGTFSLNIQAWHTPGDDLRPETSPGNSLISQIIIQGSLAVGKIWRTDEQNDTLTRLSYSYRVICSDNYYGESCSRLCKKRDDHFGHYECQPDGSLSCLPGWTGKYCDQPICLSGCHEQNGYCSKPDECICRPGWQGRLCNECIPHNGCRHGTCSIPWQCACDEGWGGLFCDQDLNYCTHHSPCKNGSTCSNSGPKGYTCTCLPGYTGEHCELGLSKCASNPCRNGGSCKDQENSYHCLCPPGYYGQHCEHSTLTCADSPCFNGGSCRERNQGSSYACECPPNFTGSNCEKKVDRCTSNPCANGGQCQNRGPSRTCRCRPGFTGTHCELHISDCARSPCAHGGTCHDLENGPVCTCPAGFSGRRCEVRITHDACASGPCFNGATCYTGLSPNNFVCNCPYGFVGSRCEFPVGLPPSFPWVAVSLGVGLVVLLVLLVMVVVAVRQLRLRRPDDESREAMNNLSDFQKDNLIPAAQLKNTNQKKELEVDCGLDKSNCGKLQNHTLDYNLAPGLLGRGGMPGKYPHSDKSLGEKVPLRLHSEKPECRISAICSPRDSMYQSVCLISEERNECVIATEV", "assay": "FACS, DLL4 cells", "protocol": "(§3) Stable cell lines overexpressing cell-surface DLL4 were harvested from tissue culture flasks, washed four times and resuspended in phosphate buffered saline (PBS) containing 1% bovine serum albumin and 1 mM CaCl₂ (FACS buffer). 1.5×10⁵ cells were incubated with antibodies at various concentrations in FACS buffer for 60 minutes on ice. […] Following an incubation on ice (4° C., 60 minutes), cells were washed three times and resuspended in FACS buffer. Fluorescence was measured using a Becton Dickinson FACSCalibur-HTS (Becton Dickinson, San Jose, Calif., US). Data were analyzed using Graphpad Prism software and EC₅₀ values were reported as the concentration of antibody to achieve 50% of maximal DLL4 antibodies binding to DLL4 expressing cells. […]"}, "[7]": {"target": "T1, human DLL4, full length, on cells", "assay": "FACS, DLL4 cells", "protocol": "as §3"}, "[8]": {"target": "T1, human DLL4, full length, on cells", "assay": "competition FACS: huNotch-1-biotin to DLL4 cells", "protocol": "(§4) Notch blocking assay: Briefly, stable cell lines overexpressing cell-surface DLL4 were harvested from tissue culture flasks and re-suspended in phosphate buffered saline (PBS) containing 1% bovine serum albumin and 1 mM CaCl₂ (FACS buffer). HEK293G-DLL4 cells were dispensed into 96-well plate (v-bottom) at 1.5×10⁵ cells/well in FACS buffer. After spinning down cells and discarding the supernatant, 50 μL of purified IgG with appropriate dilution were added to each well, and incubated on ice at 4° C. for 60 minutes, followed by addition of 50 μL/well of Notch1-biotin at 0.2 μg/mL for human DLL4-293G or 2.0 μg/mL for mouse DLL4-293G (1.0 or 0.1 μg/mL final) for an additional 1 hour incubation ice at 4° C. After washing the cells two times with FACS buffer, 50 μL of R-phycoerythrin-conjugated streptavidin (1:150 dilution in FACS buffer) (Jackson ImmunoResearch, West Grove, Pa., Cat.#016-110-084) were added. Following an incubation on ice (4° C., 60 minutes), cells were washed three times and resuspended in FACS buffer. Fluorescence was measured using a Becton Dickinson FACSCalibur-HTS (Becton Dickinson, San Jose, Calif.). Data were analyzed using Graphpad Prism software, and IC₅₀ values were reported as the concentration of antibody to achieve 50% reduction of Notch1 bound to DLL4 expressing cells. […]"}, "[9]": {"target": "T6, mouse DLL4 on cells", "assay": "competition FACS: huNotch-1-biotin to DLL4 cells", "protocol": "as §4"}, "[10]": {"target": "T2, mouse DLL4 extracellular domain", "assay": "binding ELISA, DLL4 ECD"}, "[11]": {"target": "T5, human DLL4 extracellular domain", "assay": "binding ELISA, DLL4 ECD"}}, "data": [{"binder": "B1", "values": [{"measurement": "Notch activation Inhibition (IC50, nM), huDLL4 cell/Notch reporter cells", "setting": "[1]", "result": 6.1, "unit": "nM"}, {"measurement": "binding result", "setting": "[2]", "result": "no binding"}, {"measurement": "binding result", "setting": "[3]", "result": "no binding"}, {"measurement": "Kd", "setting": "[4]", "result": 10.5, "unit": "nM"}, {"measurement": "koff", "setting": "[4]", "result": 0.00041, "unit": "s⁻¹"}, {"measurement": "kon", "setting": "[4]", "result": 39000, "unit": "M⁻¹ s⁻¹"}, {"measurement": "Kd", "setting": "[5]", "result": 7.2, "unit": "nM"}, {"measurement": "koff", "setting": "[5]", "result": 0.00039, "unit": "s⁻¹"}, {"measurement": "kon", "setting": "[5]", "result": 54000, "unit": "M⁻¹ s⁻¹"}, {"measurement": "EC50", "setting": "[6]", "result": "> 50", "unit": "nM"}, {"measurement": "EC50", "setting": "[7]", "result": 8.6, "unit": "nM"}, {"measurement": "IC50", "setting": "[8]", "result": 4.2, "unit": "nM"}]}, {"binder": "B2", "values": [{"measurement": "Notch activation Inhibition (IC50, nM), huDLL4 cell/Notch reporter cells", "setting": "[1]", "result": 3.2, "unit": "nM"}, {"measurement": "Kd", "setting": "[2]", "result": 0.7, "unit": "nM"}, {"measurement": "koff", "setting": "[2]", "result": "5.1e-05", "unit": "s⁻¹"}, {"measurement": "kon", "setting": "[2]", "result": 74000, "unit": "M⁻¹ s⁻¹"}, {"measurement": "binding result", "setting": "[3]", "result": "no binding"}, {"measurement": "Kd", "setting": "[4]", "result": 14.9, "unit": "nM"}, {"measurement": "koff", "setting": "[4]", "result": 0.00083, "unit": "s⁻¹"}, {"measurement": "kon", "setting": "[4]", "result": 56000, "unit": "M⁻¹ s⁻¹"}, {"measurement": "Kd", "setting": "[5]", "result": 9.2, "unit": "nM"}, {"measurement": "koff", "setting": "[5]", "result": 0.001, "unit": "s⁻¹"}, {"measurement": "kon", "setting": "[5]", "result": 110000, "unit": "M⁻¹ s⁻¹"}, {"measurement": "EC50", "setting": "[6]", "result": 1.6, "unit": "nM"}, {"measurement": "EC50", "setting": "[7]", "result": 15, "unit": "nM"}, {"measurement": "IC50", "setting": "[9]", "result": 1.5, "unit": "nM"}, {"measurement": "IC50", "setting": "[8]", "result": 25, "unit": "nM"}]}, {"binder": "B3", "values": [{"measurement": "Kd", "setting": "[2]", "result": 88, "unit": "nM"}, {"measurement": "koff", "setting": "[2]", "result": 0.0041, "unit": "s⁻¹"}, {"measurement": "kon", "setting": "[2]", "result": 48000, "unit": "M⁻¹ s⁻¹"}, {"measurement": "Kd", "setting": "[4]", "result": 0.03, "unit": "nM"}, {"measurement": "koff", "setting": "[4]", "result": "6.3e-06", "unit": "s⁻¹"}, {"measurement": "kon", "setting": "[4]", "result": 220000, "unit": "M⁻¹ s⁻¹"}, {"measurement": "Kd", "setting": "[5]", "result": 0.03, "unit": "nM"}, {"measurement": "koff", "setting": "[5]", "result": "7e-06", "unit": "s⁻¹"}, {"measurement": "kon", "setting": "[5]", "result": 280000, "unit": "M⁻¹ s⁻¹"}, {"measurement": "EC50", "setting": "[6]", "result": 0.8, "unit": "nM"}, {"measurement": "EC50", "setting": "[7]", "result": 3.1, "unit": "nM"}, {"measurement": "EC50", "setting": "[10]", "result": 0.15, "unit": "nM"}, {"measurement": "EC50", "setting": "[11]", "result": 0.08, "unit": "nM"}]}]}
